{"source": "patent US9274110B2", "about": "“Diagnosis method of active tuberculosis” (priority 2011, dated 2016)", "molecules": {"B1": {"name": "LipY: triacylglycerol hydrolase LipY (Rv3097c) of Mycobacterium tuberculosis, SEQ ID NO: 3 (protein, listed as Mycobacterium tuberculosis)", "chain": "PEVVFIHGSVVSYVVALPEVMSAAATDVASIGSVVATASQGVAGATTTVLAAAEDEVSAAIAALFSGHGQDYQALSAQLAVFHERFVQALTGAAKGYAAAELANASLLQSEFASGIGNGFATIHQEIQRAPTALAAGFTQVPPFAAAQAGIFTGTPSGAAGFDIASLWPVKPLLSLSALETHFAIPNNPLLALIASDIPPLSWFLGNSPPPLLNSLLGQTVQYTTYDGMSVVQITPAHPTGEYVVAIHGGAFILPPSIFHWLNYSVTAYQTGATVQVPIYPLVQEGGTAGTVVPAMAGLISTQIAQHGVSNVSVVGDSAGGNLALAAAQYMVSQGNPVPSSMVLLSPWLDVGTWQISQAWAGNLAVNDPLVSPLYGSLNGLPPTYVYSGSLDPLAQQAVVLEHTAVVQGAPFSFVLAPWQIHDWILLTPWGLLSWPQINQQLGIAASDIHHHHHH"}}, "details": "cell wall of M. smegmatis overexpressing LipY vs control mycobacteria; 0.5 mM substrate, 40 min, 35° C.", "data": [{"molecule": "B1", "values": [{"measurement": "Lipase activity: degradation of para-Nitrophenyl stearate, absorbance at 405 nm", "value": "demonstrating the lipase activity"}]}]}
